In patent publication US10682371B2, “Small molecule conjugates specifically activated in tumor microenvironment for targeting and use thereof” (priority 2014, dated 2020):
Where two headings read alike, the source gives them in different places.

Key:
[1] = system: Human prostate cancer PC-3 cells / Panc-1 cells; experiment: Tumor treatment in nude mice (PC-3 cells purchased, Panc-1 cells injected; Examples 22, 32, 42); format: in vivo
Method in brief: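 Nude mice bearing subcutaneous Panc-1 xenografts (5×10^6 cells on the back) were randomized once tumors reached at least 100 mm^3. Drugs were given intravenously once weekly for four weeks, with saline controls. PC-3 cells were grown in DMEM/10% FBS and used within passage 15.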

[2] = Solubility / formulation test in solvent 1 and solvent 2; format: physicochemical
Protocol: In Table 11, AAN, AANL and AANK indicate the linkage formed by small peptides in the compounds, A is Ala, N is Asn, L is Leu and K is Lys. […] The dissolution concentration is 10 mg/ml.
B1, B2, B3 and B4 and various control compounds were dried under vacuum, sterilized via gas sterilization, and separately packing in a sterile room. Before animal test, B1, B2, B3 and B4 were dissolved by solvent 1 (injectable water) or solvent 2 (30% alcohol, 70% injectable water) and diluted by injectable water to the desired concentration in sterile room. […] Change in solubility may greatly affect the formulation scheme of a drug.
D1, D2, D3, D4 and various control compounds were dried under vacuum, sterilized via gas sterilization, and separately packing in a sterile room. […] Change in solubility may greatly affect the formulation scheme of a drug.

[3] = system: Human non-small cell lung cancer A549; experiment: Multiple tumor models in nude mice: A549; format: in vivo
Protocol: 1) Corresponding tumor cells were purchased from American type culture collection (ATCC) and identified according the specification provided by ATCC. Cells were cultivated in DMEM culture solution containing 10% fetal bovine serum at 37° C. and 5% CO2. The cells were passaged for every three days and cells within the 15th passage were used.
2) Production of tumor. 5×10^6 corresponding cells were subcutaneously injected to the back of the nude mice. Mice were randomly grouped after the tumor reached at least 100 mm^3. Then treatment began and the day on which the treatment began was day 1.
(§1) 3) Course of treatment. […] The control group was administered by physiological saline. Animals were administered once weekly for three weeks.
3) Course of treatment. According to the clinical application of A1, A1 was administered in a dose of ⅙ MTD, i.v., 17.6 μmol/kg. The control group was administered by physiological saline. Animals were administered once weekly for three weeks.
3) Course of treatment. According to the clinical application of B1, B1 was administered in a dose of ⅙ MTD, i.v., 17.6 μmol/kg. The control group was administered by physiological saline. Animals were administered once weekly for three weeks.
as §1, §1

[4] = system: Human fibrosarcoma HT-1080 tumor tissue homogenate; format: biochemical; conditions: Human fibrosarcoma HT-1080, 1 mg/ml, 100 μg acidized homogenate
Method in brief: (§2)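 37° C; compound 1 mg/ml into 100 μg acidified tissue homogenate, pH6.0. Read-out: protease-mediated activation.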

BALB/C mice = experiment: Maximum tolerated dose (MTD) / acute toxicity by single intravenous injection; conditions: for MTD (maximum tolerated dose): BALB/C mice, intravenous injection, one time
4T1 cells = experiment: BALB/C mice model for tumor metastasis (4T1, lung metastases); format: in vivo; conditions: for Inhibitory effect on tumor metastasis, in words: compared with parent drug group and control group
Method in brief: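 Read-out: lung metastasis count under anatomical microscope after Bouin's staining, day 27. Treatment (IV every three days ×4, saline for controls) started after surgical removal of the ~1.5 cm subcutaneous tumor grown from 10^6 4T1 cells (passage ≤15) in BALB/C mice.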

tumor tissue homogenates = format: biochemical
Method in brief: as §2

[5] = Table 38, nude mice, IV once weekly for four weeks, B1-B4 25 mg/kg, Docetaxel […], Day 10
[6] = Table 38, nude mice, IV once weekly for four weeks, B1-B4 25 mg/kg, Docetaxel […], Day 24
[7] = single intravenous injection, 125 mg/kg, 10 BALB/C mice per group
[8] = single intravenous injection, 150 mg/kg, 10 BALB/C mice per group
[9] = single intravenous injection, 175 mg/kg, 10 BALB/C mice per group
[10] = single intravenous injection, 200 mg/kg, 10 BALB/C mice per group
[11] = Table 40, BALB/C mice, 4T1, lung metastases day 27, IV every three days for 4 times, B1-B4 17.6 μmol/kg, Docetaxel 3 μmol/kg
[12] = Table 50, BALB/C mice, 4T1, lung metastases day 27, IV every three days for 4 times, D1-D4 25 mg/kg, Docetaxel 4.2 mg/kg

COCCOCC(=O)NCCCC[C@H](NC(=O)COCCOC)C(=O)N[C@H](C)C(=O)N[C@H](C)C(=O)N[C@H](CC(N)=O)C(=O)Nc1ccc(COC(=O)OC(C(=O)OC2C[C@@]3(O)[C@@H](OC(=O)c4ccccc4)[C@H]4[C@](C)(C(=O)[C@H](O)C(=C2C)C3(C)C)[C@@H](O)CC2OC[C@]24OC(C)=O)[C@@H](NC(=O)OC(C)(C)C)c2ccccc2)cc1 (stereo partly drawn) [Compound B1]
Size of tumor (mm^3) Day 10 [1, 5]: 92.4 ± 59.66 mm^3 | inhibitory rate on tumor Day 10 [1, 5]: 67.8 | Size of tumor (mm^3) Day 24 [1, 6]: 128.45 ± 105.56 mm^3 | inhibitory rate on tumor Day 24 [1, 6]: 66.3 | Inhibition on tumor growth, in words ([1]; compared with parent drug group (same molar concentration) and control group): greatly improved | solubility in Solvent 1 ([2]; solvent 1 (injectable water), Table 33, water-soluble Docetaxel series): insoluble | solubility in Solvent 2 ([2]; solvent 2 (30% alcohol, 70% injectable water), Table 33, water-soluble Docetaxel series): soluble | inhibitory rate on tumor (Day 26) ([3]; Table 41, i.v. 17.6 μmol/kg once weekly for three weeks): 74.56% | activation efficiency (%) ([4]; Table 34, Docetaxel release by HPLC): 79.1% | Behaviors and death observed (BALB/C mice; BALB/C mice receiving 175 mg/kg injection): no pilo-erection, hair tousle and lackluster, lethargy, stoop, irritable reaction and death | MTD (maximum tolerated dose) (BALB/C mice): about 150 mg/kg | Mortality rate (%) (BALB/C mice; [7]): 0% | Number of dead animal (BALB/C mice; [7]): 0 | Mortality rate (%) (BALB/C mice; [8]): 0% | Number of dead animal (BALB/C mice; [8]): 0 | Mortality rate (%) (BALB/C mice; [9]): 0% | Number of dead animal (BALB/C mice; [9]): 0 | Mortality rate (%) (BALB/C mice; [10]): 20% | Number of dead animal (BALB/C mice; [10]): 2 | Inhibitory rate on metastasis (4T1 cells; [11]): 96.0 | Number of metastasized tumor (4T1 cells; [11]): 5 ± 3 | Inhibitory effect on tumor metastasis, in words (4T1 cells): greatly improved

COCCOCC(=O)N[C@H](C)C(=O)N[C@H](C)C(=O)N[C@H](CC(N)=O)C(=O)Nc1ccc(COC(=O)N2[C@@H]3CN4C5=C(C(=O)C(N)=C(C)C5=O)[C@H](COC(N)=O)[C@]4(OC)[C@@H]32)cc1 [Compound E1, 2-(2-methoxyethoxy) acetyl-L-Ala-L-Ala-L-Asn-4-amino benzyl mitomycin]
inhibitory rate on tumor (Day 26) ([3]; 15 mg/kg once weekly for three weeks, Day 26): 95.3% | Activation ratio (%) in homogenates from different tumor tissues ([4]; 37° C.): 83.6% | Mortality rate (%) (BALB/C mice; 50 mg/kg single IV injection, 10 BALB/C mice): 0% | Number of dead animal (BALB/C mice; 50 mg/kg single IV injection, 10 BALB/C mice, observed 17 days): 0 | Mortality rate (%) (BALB/C mice; 70 mg/kg single IV injection, 10 BALB/C mice): 0% | Number of dead animal (BALB/C mice; 70 mg/kg single IV injection, 10 BALB/C mice, observed 17 days): 0 | Mortality rate (%) (BALB/C mice; 90 mg/kg single IV injection, 10 BALB/C mice): 0% | Number of dead animal (BALB/C mice; 90 mg/kg single IV injection, 10 BALB/C mice, observed 17 days): 0 | Mortality rate (%) (BALB/C mice; 110 mg/kg single IV injection, 10 BALB/C mice): 10% | Number of dead animal (BALB/C mice; 110 mg/kg single IV injection, 10 BALB/C mice, observed 17 days): 1 | Behaviors and death observed (BALB/C mice; BALB/C mice receiving 90 mg/kg injection): no pilo-erection, hair tousle and lackluster, lethargy, stoop, irritable reaction and death | Inhibitory effect on tumor metastasis, in words (4T1 cells): greatly improved | Inhibitory rate on metastasis (4T1 cells; day 27, IV once every three days for 4 times, E1-E4 15 mg/kg, mitomycin 1 mg/kg): 99.2% | Number of metastasized tumor (4T1 cells; lung metastases counted on day 27, IV once every three days for 4 times, E1-E4 15 mg/kg, mitomycin 1 mg/kg): 2 ± 3

COCCOCC(=O)N[C@H](C)C(=O)N[C@H](C)C(=O)N[C@H](CC(N)=O)C(=O)Nc1ccc(COC(=O)OC(C(=O)OC2C[C@@]3(O)[C@@H](OC(=O)c4ccccc4)[C@H]4[C@](C)(C(=O)[C@H](O)C(=C2C)C3(C)C)[C@@H](O)CC2OC[C@]24OC(C)=O)[C@@H](NC(=O)OC(C)(C)C)c2ccccc2)cc1 (stereo partly drawn) [Compound D1, 2-(2-methoxyethoxy) acetyl-L-Ala-L-Ala-L-Asn-4-amino benzyl-Docetaxel]
solubility in Solvent 1 ([2]; Table 44, second column (head repeats Solvent 1), text: solvent 2 (45% alcohol, 55% injectable water)): soluble | solubility in Solvent 1 ([2]; solvent 1 (injectable water), Table 44, first column, Docetaxel D series): insoluble | inhibitory rate on tumor (Day 26) ([3]; Table 51, 25 mg/kg once weekly for three weeks): 90.4% | Activation efficiency by tumor tissue, in words (tumor tissue homogenates): highest activation efficiency | Activation ratio (%) in homogenates from different tumor tissues ([4]; Table 45, Docetaxel release by HPLC): 77.23% | Behaviors and death observed (BALB/C mice; BALB/C mice receiving 150 mg/kg injection): no pilo-erection, hair tousle and lackluster, lethargy, stoop, irritable reaction and death | MTD (maximum tolerated dose) (BALB/C mice): about 150 mg/kg | Mortality rate (%) (BALB/C mice; [7]): 0% | Number of dead animal (BALB/C mice; [7]): 0 | Mortality rate (%) (BALB/C mice; [8]): 0% | Number of dead animal (BALB/C mice; [8]): 0 | Mortality rate (%) (BALB/C mice; [9]): 0% | Number of dead animal (BALB/C mice; [9]): 0 | Mortality rate (%) (BALB/C mice; [10]): 10% | Number of dead animal (BALB/C mice; [10]): 1 | Inhibitory rate on metastasis (4T1 cells; [12]): 95.2 | Number of metastasized tumor (4T1 cells; [12]): 5 ± 3 | Inhibitory effect on tumor metastasis, in words (4T1 cells): greatly improved
